Columns and labels:
[1] = system: VEGFR2; assay: Real-time quantitative RT-PCR of VEGFR2 expression in HUVECs; format: cell-based, human; settings: 3-D fibrin gel culture of HUVECs (7 d); anti-DLL4 antibody 5 μg/ml, DBZ 0.08 μM
Protocol: RNA extraction and Real-time quantitative RT-PCR. Extraction of total RNA from HUVECs in 2-D culture was done using RNeasy® Mini Kit (Qiagen) as per instructions of the manufacturer. To extract total RNA from HUVECs growing in fibrin gels, fibrin gels were treated with 10× trypsin-EDTA (Gibco) for 5 min to remove the top layer fibroblasts, followed by neutralization with 10% FBS in PBS. The gel clots were then removed from tissue culture wells and subjected to centrifugation (10K for 5 min) in microtubes to remove excessive fluid. The resulting gel “pellets” were lysed with lysis buffer (RNeasy® Mini Kit), and further processed as with HUVECs in 2-D culture. The quality of RNA was assessed using RNA 6000 Nano Chips and the Agilent 2100 Bioanalyzer (Agilent Technologies). Real-time quantitative RT-PCR reactions were done in triplicate using 7500 Real Time PCR System (Applied Biosystems). Human GAPDH was used as reference gene for normalization. The expression levels are expressed as the mean (±SEM) fold mRNA changes relative to control from 3 separate determinations. The forward and reverse primer and probe sequences for VEGFR2, TGFβ2 and GAPDH were as follows.
Therefore, while VEGF can act upstream of DLL4/Notch pathway, DLL4/Notch is capable of fine-tuning the response through negatively regulating VEGFR2 expression.

[2] = biological target: DLL4 (Homo sapiens, UniProt Q9NR61); assay: ELISA binding to coated purified recombinant proteins; settings: plates coated with recombinant protein 1 μg/ml
Protocol: (§1) 96-well Nunc Maxisorp plates were coated with purified recombinant proteins as indicated (1 μg/ml). […] Bound antibodies were detected with anti-human antibody HRP conjugate using TMB as substrate and OD 450 nm absorbance measurement. Anti-HER2 and recombinant ErbB2-ECD were used as assay control (FIG. 11b).

[3] = biological target: Jag1 (Homo sapiens, UniProt P78504); assay: as above; settings: plates coated with recombinant protein 1 μg/ml
Protocol: as §1

For “YW26.82: affinity matured anti-DLL4 monoclonal antibody; HVR-H1/H2/H3 SEQ ID NO:1, 8, 9; HVR-L1/L2/L3 SEQ ID NO:10, 11, 18”, the “VEGFR2 expression on Notch blockade” value [1] was “upregulation of VEGFR2”, the “binding by ELISA” value [2] was “bound” and the “binding by ELISA” value [3] was “did not delectably bind”.
